The results in this text go back to patent publication US10975360B2, “Process for the modification of alkanes, fatty acids and fatty alcohols” (priority 2016, dated 2021).

A short description of data set [1]: Biotransformation of dodecanoic acid using CFE of E. coli, Tris-HCl buffer. The data set is classed as biochemical. Particulars: C12 fatty acid; CYP505A1 only tested in CFEs of E. coli. How it is done:
(§1) Expression of genes in E. coli was performed by using ZYP-5052 auto-induction medium (Table 1) with in the case of the CYP 1 mM 5-aminolevulinic acid and 0.05 mM FeCl3 added. The CYP505E3 culture was cultivated using baffled flasks and incubated at 20° C. and 180 rpm for 24 h, while the GDH, and HLADH expressing cultures were all cultivated at 25° C. and 200 rpm for 24 h. Cultures were harvested through centrifugation (6 000×g, 10 min) and 1 g (wet weight) resuspended in 2 ml, 5 ml or 10 ml Tris-HCl, Phosphate or MOPS buffer, as indicated, (pH 8, 200 mM) containing 100 mM of glucose and glycerol. CFEs were obtained by a single passage of the suspended cells through a One Shot Cell Disrupter (Constant Systems) at 207 MPa. The soluble fraction was separated from unbroken cells by centrifugation (20 000×g, 20 min).
(§2) The biotransformation reaction mixture (BRM) consisted of CYP and GDH CFE suspensions prepared from cells in Tris-HCl buffers (1 g wet weight in 2 ml buffer) mixed in a 1:1 ratio with 0.1 mM NADPH added. Dodecanoic acid, tetradecanoic acid, hexadecanoic acid, 1-tetradecanol and 1-hexadecanol (20 μl of a 255 mM stock solution in DMSO) were added to 40 ml amber glass vials containing 1 ml BRM to give final substrate concentrations of 5 mmol·LBRM^−1. These vials were placed on an orbital shaker at 20° C., 200 rpm, oscillation amplitude 26 mm. Vials were removed after 24 h for extraction. Biotransformations were stopped by adding 170 ul of 0.5M HCl, extracted with 2×500 μl EtOAc and subjected to GC-MS analysis. A sample of δ-dodecalactone in ethyl acetate (0.1 mM) was also methylated with TMSH and subjected to GC-MS analysis.

Data set [2] in a line: Biotransformation of 1-tetradecanol using CFE of E. coli, Tris-HCl buffer. Particulars: C14 alcohol; CYP505A1 only tested in CFEs of E. coli. The data set is classed as biochemical. How it is done: as §1
The biotransformation reaction mixture (BRM) consisted of CYP and GDH CFE suspensions prepared from cells in Tris-HCl buffers (1 g wet weight in 2 ml buffer) mixed in a 1:1 ratio with 0.1 mM NADPH added. Dodecanoic acid, tetradecanoic acid, hexadecanoic acid, 1-tetradecanol and 1-hexadecanol (20 μl of a 255 mM stock solution in DMSO) were added to 40 ml amber glass vials containing 1 ml BRM to give final substrate concentrations of 5 mmol·LBRM^−1. These vials were placed on an orbital shaker at 20° C., 200 rpm, oscillation amplitude 26 mm. […]

The nature of data set [3]: Biotransformation of hexadecanoic acid using CFE of E. coli, Tris-HCl buffer. The data set is classed as biochemical. How it is done: as §1, §2
A short description of data set [4]: Biotransformation of tetradecanoic acid using CFE of E. coli, Tris-HCl buffer. The data set is classed as biochemical. Here is the method: as §1, §2
Data set [5] can be described thus: Biotransformation of tetradecanoic acid to δ-dodecalactone by CYP505An expressed in Pichia pastoris. Conditions: 10 mM fatty acid, 12 h, acidified; via β-oxidation. The format is cell-based. Here is the method:
(§3) A transformant of Pichia pastoris KM71 harbouring the gene encoding CYP505An (SEQ ID No 5) was grown and harvested as described above. The harvested cells were resuspended 1 g in 40 ml of MOPS (200 mM, 100 mM glucose, 100 mM glycerol, pH 8) buffer and 12.5 ml was transferred to each of two 500 ml Erlenmeyer flask. One flask was supplemented with 250 μl of a 500 mM dodecanoic acid stock solution (in DMSO) and the other flask with 250 μl of a 500 mM tetradecanoic acid stock solution (in DMSO) to give in each case a final concentration of 10 mM of the fatty acid. The flasks were incubated at 25° C. and 180 rpm for 12 h. Samples (800 μl) were withdrawn after 12 h and 136 μl of 5 M HCl added. These samples were stored for 5-6 h at room temperature to convert hydroxy fatty acids to the lactone. These were then extracted with ethyl acetate (2×800 μl).

A short description of data set [6]: Biotransformation of dodecanoic acid to δ-dodecalactone by CYP505An expressed in Pichia pastoris. The format is cell-based. Particulars: 10 mM fatty acid, 12 h, acidified. How it is done:
as §3

[7] abbreviates: C16 fatty acid, GC-MS peak height.
The mark [8] stands for this setting: C14 fatty acid, CYP505A1 only tested in CFEs of E. coli.

B1: CYP505A1: known sub-terminal fatty acid hydroxylase of medium chain fatty acids from Fusarium oxysporum, Seq ID No 8 (protein, listed as Fusarium oxysporum)
chain: MAESVPIPEPPGYPLIGNLGEFTSNPLSDLNRLADTYGPIFRLRLGAKAPIFVSSNSLINEVCDEKRFKKTLKSVLSQVREGVHDGLFTAFEDEPNWGKAHRILVPAFGPLSIRGMFPEMHDIATQLCMKFARHGPRTPIDTSDNFTRLALDTLALCAMDFRFYSYYKEELHPFIEAMGDFLTESGNRNRRPPFAPNFLYRAANEKFYGDIALMKSVADEVVAARKASPSDRKDLLAAMLNGVDPQTGEKLSDENITNQLITFLIAGHETTSGTLSFAMYQLLKNPEAYSKVQKEVDEVVGRGPVLVEHLTKLPYISAVLRETLRLNSPITAFGLEAIDDTFLGGKYLVKKGEIVTALLSRGHVDPVVYGNDADKFIPERMLDDEFARLNKEYPNCWKPFGNGKRACIGRPFAWQESLLAMVVLFQNFNFTMTDPNYALEIKQTLTIKPDHFYINATLRHGMTPTELEHVLAGNGATSSSTHNIKAAANLDAKAGSGKPMAIFYGSNSGTCEALANRLASDAPSHGFSATTVGPLDQAKQNLPEDRPVVIVTASYEGQPPSNAAHFIKWMEDLDGNDMEKVSYAVFACGHHDWVETFHRIPKLVDSTLEKRGGTRLVPMGSADAATSDMFSDFEAWEDIVLWPGLKEKYKISDEESGGQKGLLVEVSTPRKTSLRQDVEEALVVAEKTLTKSGPAKKHIEIQLPSAMTYKAGDYLAILPLNPKSTVARVFRRFSLAWDSFLKIQSEGPTTLPTNVAISAFDVFSAYVELSQPATKRNILALAEATEDKDTIQELERLAGDAYQAEISPKRVSVLDLLEKFPAVALPISSYLAMLPPMRVRQYSISSSPFADPSKLTLTYSLLDAPSLSGQGRHVGVATNFLSHLTAGDKLHVSVRASSEAFHLPSDAEKTPIICVAAGTGLAPLRGFIQERAAMLAAGRTLAPALLFFGCRNPEIDDLYAEEFERWEKMGAVDVRRAYSRATDKSEGCKYVQDRVYHDRADVFKVWDQGAKVFICGSREIGKAVEDVCVRLAIEKAQQNGRDVTEEMARAWFERSRNERFATDVFD
Consider B1, for which, in data set [1], the “other hydroxylase activities (in brackets) C12FA” value was “(+++) (+++ 1 million < RA < 10 million)” and the “ω-7 hydroxylase activity C12FA” value is reported as “−”. Besides, the “ω-7 hydroxylase activity C14o” value in data set [2] is reported as “−”. The “products identified from hexadecanoic acid (GC-MS, methylated samples)” value in data set [3] (5 mmol/L substrate, Tris-HCl, 24 h) is recorded as “only sub-terminally hydroxylated products”. In data set [3] (setting [7]), the “other hydroxylase activities (in brackets) C16FA” value is “(++) (++ 0.1 million < RA < 1 million)” and the “ω-7 hydroxylase activity C16FA” value is “−”. The “products identified from tetradecanoic acid (GC-MS, methylated samples)” value in data set [4] (5 mmol/L substrate, CFE of E. coli, Tris-HCl, 24 h) is on record as “only sub-terminally hydroxylated products”. For the same molecule, in data set [4] (setting [8]), the “other hydroxylase activities (in brackets) C14FA” value was “(++) (++ 0.1 million < RA < 1 million)” and the “ω-7 hydroxylase activity C14FA” value is “−”.

B2: CYP505An: CYP505 cytochrome P450 monooxygenase from Aspergillus niger, SEQ ID No 5 (protein)
chain: MKDAERIPGPKPLPVVGNLLDIDPEHGLQSIIAFADKYGPLFQITINGEKQIFATSQALVDELCDESRFHKAVVTGLEVLRLLAHDGLFTAYHGERGWGIAHRILVPAFGPLRIRNMLDDMSDVAQQLCLKWARQGGSTSINITEDFTRLTLDTIALCTMGFRLNSFYNNETMHPFVQSMLYVLKEADVQANLPGIANSIRVSAQRRMHKNIEAMRTMARGIIQERRKNKNPVDDILNTLLNGRDPVTGEGMSDDSIIDNVITFLIAGHETTSGLLSFTFYFLIQHPHILKKAQEEVDETVGLAQISAQHLAELPYIDAILKESLRLMPTAPGFAVTPKKTEVLGGKWMINAGQPVNVLLPACLRDQSVFGPDADEFHPERMLAENFSKLPPNSWKPFGNGERGCIGRAFAWQEAQLVVAMILQTFDLVPDDPSYQLRIKETLTIKPDGFRIRALLRRGQTATGLSRRSMLVARDGSSGESSNHLAEARGDHAPARGQPVSFFYGSNSGTCKALAHQLASNMMSRGYTTQKLAPLDNAVGNLPRDQPVIILTTTYDGQPTDDAKKFVAWLETGNVPSLQGISYAVFGCGHHDWTQTFYRIPILIDDLMHKAGATRLAPRGAANAAVSDLFSDLEAWEETSLLPALRENFLPSNSTDFDPLNPHQIQLSLSKPRRVDLHKGLIEAKVTAVRVLTSPDTPEKRHLEFCFQGDTSLRPGDHLNILPVNPPSTVSRVLAQFNLAPDYNITVNSFNTLGLPQATPVSASELFSSYVELCQPATRNNLKALIAATQSDPDKQELNRLYDSYEFIVRDKRVSVLDLLEQFPSISLPIAAFISMLPALRVRTYSLSMAPSFKPSHSSLTFSVINEPAWRGSGQHLGVASNYLASLTSGSIFYFSPRPAKESFHLPKDPSNTPIIMICAGSGLAPFLSFIQDRMVLKQQYKPLAKAFLFFGCRGRSLDDLYHEELSEFEAAGVVEIRRAYSKTPDFDIAKGCRYVQHRLVTEGQAILSLWSQNATIYVCGSTNMAKGVEAVLQNMLGPLPKERYVTEIF
modifications: Aspergillus niger
B2: the “δ-dodecalactone production from tetradecanoic acid” value in data set [5] is “δ-dodecalactone was produced”. Moreover, the “δ-dodecalactone production from dodecanoic acid” value in data set [6] is listed as “δ-dodecalactone was produced”.
